In this series the target is T1, E4BP4-DBD (NFIL3 DNA-binding domain) (zebrafish, UniProt Q68EL6 18-164).
T1 sequence: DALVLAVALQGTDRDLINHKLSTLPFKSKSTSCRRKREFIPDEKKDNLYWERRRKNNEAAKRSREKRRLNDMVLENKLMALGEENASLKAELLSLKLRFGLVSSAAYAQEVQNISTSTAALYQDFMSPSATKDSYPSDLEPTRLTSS
Briefly: EMSA; not given; EMSA performed as in an earlier cited paper (ref 25). As to conditions: protein: recombinant; tags: N-terminal His6; additional pET-30a(+) vector residues; chain copies: 2. In general terms: In EMSA bound probe runs differently from free probe, usually more slowly.

B1: probe b (dsDNA)
DNA 1: GTAAGCTTTTATGTAAGTATTTTG
DNA 2: CAAAATACTTACATAAAAGCTTAC
Take B1: the binding result was “binds”.

B2: probe e (E4BP4 site E11) (dsDNA)
DNA 1: TGGTCAGTATTGTTATTACATAAGACATCAGCAAT
DNA 2: ATTGCTGATGTCTTATGTAATAACAATACTGACCA
For B2, the binding result is given as “binds”.

B3: probe d (dsDNA)
DNA 1: ATTGGTTCATTATGTAACTTTCCCAT
DNA 2: ATGGGAAAGTTACATAATGAACCAAT
In the case of B3, the binding result is recorded as “binds”.

B4: probe a (dsDNA)
DNA 1: AATAAATGTTACATAATCCAAAGTC
DNA 2: GACTTTGGATTATGTAACATTTATT
With B4, the binding result is “binds”.

B5: probe c (dsDNA)
DNA 1: ATTAAATTTTATGTAAAAATATGT
DNA 2: ACATATTTTTACATAAAATTTAAT
B5: the binding result is “binds”.

These data come from paper PMC3546842, “Using BAC transgenesis in zebrafish to identify regulatory sequences of the amyloid precursor protein gene in humans”.
